From doi:10.1101/439331
Like-named read-outs stand apart in the source and are kept apart here.

Assays:
[1] = target: SCARECROW (SCR)-mCherry translational fusion (SCR:SCR-mCherry) (Arabidopsis) (UniProt Q9M384); test: Cross-Correlation Number and Brightness
[2] = target: SCARECROW (SCR)-mCherry translational fusion (SCR:SCR-mCherry) (Arabidopsis) (UniProt Q9M384); test: Cross-Correlation Number and Brightness; remark: listed apart in the source
[3] = target: T1, SCARECROW (SCR)-GFP translational fusion (SCR:SCR-GFP) (Arabidopsis), Q9M384; test: Number and Brightness; conditions: remark: other sources report otherwise
T1 chain: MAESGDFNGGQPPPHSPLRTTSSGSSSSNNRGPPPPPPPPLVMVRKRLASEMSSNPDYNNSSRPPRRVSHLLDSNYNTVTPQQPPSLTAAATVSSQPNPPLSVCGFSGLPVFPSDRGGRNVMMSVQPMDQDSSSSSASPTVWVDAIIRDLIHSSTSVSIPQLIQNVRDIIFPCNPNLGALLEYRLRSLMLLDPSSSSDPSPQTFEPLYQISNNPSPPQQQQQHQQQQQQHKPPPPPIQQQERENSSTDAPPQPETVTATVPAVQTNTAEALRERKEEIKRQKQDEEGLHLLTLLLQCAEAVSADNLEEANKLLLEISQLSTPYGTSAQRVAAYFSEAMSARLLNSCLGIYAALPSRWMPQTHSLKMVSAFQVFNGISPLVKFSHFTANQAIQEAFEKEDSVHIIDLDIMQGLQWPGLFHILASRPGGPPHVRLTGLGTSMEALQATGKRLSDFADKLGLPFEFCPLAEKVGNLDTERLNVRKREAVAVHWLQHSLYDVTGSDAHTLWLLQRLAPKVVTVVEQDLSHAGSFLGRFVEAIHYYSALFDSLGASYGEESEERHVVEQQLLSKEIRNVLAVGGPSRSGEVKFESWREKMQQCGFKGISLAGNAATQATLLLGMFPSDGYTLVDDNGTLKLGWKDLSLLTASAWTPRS

[4] = target: T1, SCARECROW (SCR)-GFP translational …; test: Number and Brightness; conditions: remark: other sources report otherwise
[5] = target: SHORTROOT (SHR)-GFP translational fusion (SHR:SHR-GFP) (Arabidopsis) (UniProt Q9SZF7); test: Number and Brightness

## SHORTROOT (SHR)-GFP translational fusion (SHR:SHR-GFP) (from UniProt Q9SZF7 1-531) (natural protein)
[1]
  binding score of the 2 SHR: 2 SCR complex: 1
  percent of SHR-SCR complexes that are 1 SHR: 1 SCR: > 90%
  percent of SHR-SCR complexes that are 1 SHR: 2 SCR: < 5%
  percent of SHR-SCR complexes that are 2 SHR: 1 SCR: 7%
  percent of SHR-SCR complexes that are 2 SHR: 2 SCR: < 1%
[2]
  percent of SHR-SCR complexes that are 1 SHR: 1 SCR: > 90%
  percent of SHR-SCR complexes that are 1 SHR: 2 SCR: 7%

B1: SCARECROW (SCR)-GFP translational fusion (SCR:SCR-GFP), Q9M384 1-653 (natural protein)
chain: MAESGDFNGGQPPPHSPLRTTSSGSSSSNNRGPPPPPPPPLVMVRKRLASEMSSNPDYNNSSRPPRRVSHLLDSNYNTVTPQQPPSLTAAATVSSQPNPPLSVCGFSGLPVFPSDRGGRNVMMSVQPMDQDSSSSSASPTVWVDAIIRDLIHSSTSVSIPQLIQNVRDIIFPCNPNLGALLEYRLRSLMLLDPSSSSDPSPQTFEPLYQISNNPSPPQQQQQHQQQQQQHKPPPPPIQQQERENSSTDAPPQPETVTATVPAVQTNTAEALRERKEEIKRQKQDEEGLHLLTLLLQCAEAVSADNLEEANKLLLEISQLSTPYGTSAQRVAAYFSEAMSARLLNSCLGIYAALPSRWMPQTHSLKMVSAFQVFNGISPLVKFSHFTANQAIQEAFEKEDSVHIIDLDIMQGLQWPGLFHILASRPGGPPHVRLTGLGTSMEALQATGKRLSDFADKLGLPFEFCPLAEKVGNLDTERLNVRKREAVAVHWLQHSLYDVTGSDAHTLWLLQRLAPKVVTVVEQDLSHAGSFLGRFVEAIHYYSALFDSLGASYGEESEERHVVEQQLLSKEIRNVLAVGGPSRSGEVKFESWREKMQQCGFKGISLAGNAATQATLLLGMFPSDGYTLVDDNGTLKLGWKDLSLLTASAWTPRS
[3]
  percent homodimer: 17.3%
  stoichiometry N: 2
[4]
  percent homodimer: 6.6%

B2: SHORTROOT (SHR)-GFP translational fusion (SHR:SHR-GFP) (natural protein)
chain: MDTLFRLVSLQQQQQSDSIITNQSSLSRTSTTTTGSPQTAYHYNFPQNDVVEECFNFFMDEEDLSSSSSHHNHHNHNNPNTYYSPFTTPTQYHPATSSTPSSTAAAAALASPYSSSGHHNDPSAFSIPQTPPSFDFSANAKWADSVLLEAARAFSDKDTARAQQILWTLNELSSPYGDTEQKLASYFLQALFNRMTGSGERCYRTMVTAAATEKTCSFESTRKTVLKFQEVSPWATFGHVAANGAILEAVDGEAKIHIVDISSTFCTQWPTLLEALATRSDDTPHLRLTTVVVANKFVNDQTASHRMMKEIGNRMEKFARLMGVPFKFNIIHHVGDLSEFDLNELDVKPDEVLAINCVGAMHGIASRGSPRDAVISSFRRLRPRIVTVVEEEADLVGEEEGGFDDEFLRGFGECLRWFRVCFESWEESFPRTSNERLMLERAAGRAIVDLVACEPSDSTERRETARKWSRRMRNSGFGAVGYSDEVADDVRALLRRYKEGVWSMVQCPDAAGIFLCWRDQPVVWASAWRPT
[5]
  percent homodimer without m4 (scr4 mutant): < 1%
